Read-outs that look alike come from different tables or passages of the source.
How the values were obtained:
[1] = molecular target: T1, human EGFR soluble extracellular region with C-terminal poly-histidine tag (hEGFR) (UniProt P00533 25-638); experiment: SPR
[2] = molecular target: T1, human EGFR soluble extracellular region …; experiment: SPR; remark: listed apart in the source

B1: 10E6-stable (antibody, V domains shown)
VH: EVQLVESGGGLVQPGGSLRLSCAVSGYSLTSDYAWSWIRQAPGKGLEWMVYITYSGITTYNPSLKSRITISRDTSKNTFYLQMNSLRAEDTAVYYCAGGDYGLSSWFAYWGQGTMVTVSS
VL: DIQLTQSPSSLSASVGDRVTITCRASQSISNYLHWYQQKPGKAPKLLIKYASQSISGVPSRFSGSGSGTDFTLTISSLQPEDFATYFCQQSNNWPYTFGQGTKVEIKR
Q: Which Kd [1] does the source give for B1 here?
A: The Kd was 14.5 nM.

B2: 10E6-best-fit (antibody, V domains shown)
VH: QVQLQESGPGLVKPSQTLSLTCTVSGYSLTSDYAWSWIRQPPGKGLEWMVYITYSGITTYNPSLKSRITISRDTSKNQFSLKLSSVTAADTAVYYCAGGDYGLSSWFAYWGQGTTVTVSS
VL: EIVLTQSPDFQSVTPKEKVTITCRASQSISNYLHWYQQKPDQSPKLLIKYASQSISGVPSRFSGSGSGTDFTLTINSLEAEDAATYFCQQSNNWPYTFGQGTKLEIKR
Q: B2 was tested. Which Kd [1] did it give?
A: The Kd was 20.1 nM.

B3: 10E6 chimeric antibody (antibody, V domains shown)
VH: DVQLQESGPGRVKPSQSLSLTCTVTGYSLTSDYAWSWIRQFPGNRLEWMVYITYSGITTYNPSLKSRISITRDTSKNQFFLQLNSVTTEDTATYYCAGGDYGLSSWFAYWGQGTLVTVSS
VL: DIVLTQSPVTLSVTPGDRVSLSCRASQSISNYLHWYQQKSHESPRLLIKYASQSISGIPSRFSGSGSGTDFTLSINSVETEDFGMYFCQQSNNWPYTFGGGTKLEIKR
Q: With B3 as the binder, how does the Kd [2] read?
A: The Kd was 10.8 nM.

B4: 3A6 chimeric antibody (antibody, V domains shown)
VH: QVQLKQSGPGLVQPSQSLSITCTVSGFSLTSYGVHWVRQSPGKGLEWLGVIWSGGTTDYNAAFISRLSISQDNSKSQVFFKMNSLQANDTAIYYCAGNQGRTVRPTWFAYWGQGTLVTVSS
VL: DILLTQSPAILSVSPGERVSFSCRASQSIGTSIHWYQQRANGSPRLLIKYASESISGIPSRFSGSGSGTDFTLSINSVESEDIAHYYCQQNSNWPLTFGAGTKLELKR
Q: How did the Kd [2] turn out when B4 was run?
A: The Kd was 346 nM.
